Experimental data published in PMC12455584.

Molecular target: T1, scIHF-His (single-chain IHF, ihfA-linker-ihfB-6xHis) internal_change (Salmonella enterica serovar Typhimurium 14028s?) (UniProt P0A1S0)
T1 sequence: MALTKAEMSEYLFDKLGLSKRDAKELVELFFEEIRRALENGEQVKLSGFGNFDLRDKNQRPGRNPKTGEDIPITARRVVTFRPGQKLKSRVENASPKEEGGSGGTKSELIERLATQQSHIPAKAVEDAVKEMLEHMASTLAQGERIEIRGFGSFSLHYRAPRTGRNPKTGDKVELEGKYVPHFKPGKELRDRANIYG
Assay: EMSA
Conditions: EMSA: 25 mM Tris pH 8, 75 mM NaCl, 10% glycerol, 0.5 mM DTT, 0.5 mM EDTA, 1 ug poly(dIdC), 0.1 mg/ml BSA, 0.87 pmol DNA in 20 ul, 37 C 10 min; gel 4-15% PAGE …

## CCCTCGTGTACCATTGTTTACTTTTTGATCTAAAAATTACATCAAATGAACACAAAAAACGGTATAAAAAACGCTC (double strand) [intA promoter IHF BS(+)]
  binding: binds
